Article doi:10.1101/2025.05.01.651538 (2025)

Tests used:
[1] = biological target: wild-type unmodified 147bp nucleosome (nucleosome core particle, human histones) (human)
[2] = biological target: wild-type 185bp nucleosome (nucleosome with symmetric flanking DNA, human histones) (human)

Kd [1]: 4 µM
Kd [2]: 3 µM
B1: KDM5A^CAT (KDM5A 1–801, minimal catalytically active construct) (domain or fragment)
chain: MAGVGPGGYAAEFVPPPECPVFEPSWEEFTDPLSFIGRIRPLAEKTGICKIRPPKDWQPPFACEVKSFRFTPRVQRLNELEAMTRVRLDFLDQLAKFWELQGSTLKIPVVERKILDLYALSKIVASKGGFEMVTKEKKWSKVGSRLGYLPGKGTGSLLKSHYERILYPYELFQSGVSLMGVQMPNLDLKEKVEPEVLSTDTQTSPEPGTRMNILPKRTRRVKTQSESGDVSRNTELKKLQIFGAGPKVVGLAMGTKDKEDEVTRRRKVTNRSDAFNMQMRQRKGTLSVNFVDLYVCMFCGRGNNEDKLLLCDGCDDSYHTFCLIPPLPDVPKGDWRCPKCVAEECSKPREAFGFEQAVREYTLQSFGEMADNFKSDYFNMPVHMVPTELVEKEFWRLVSSIEEDVIVEYGADISSKDFGSGFPVKDGRRKILPEEEEYALSGWNLNNMPVLEQSVLAHINVDISGMKVPWLYVGMCFSSFCWHIEDHWSYSINYLHWGEPKTWYGVPSHAAEQLEEVMRELAPELFESQPDLLHQLVTIMNPNVLMEHGVPVYRTNQCAGEFVVTFPRAYHSGFNQGYNFAEAVNFCTADWLPIGRQCVNHYRRLRRHCVFSHEELIFKMAADPECLDVGLAAMVCKELTLMTEEETRLRESVVQMGVLMSEEEVFELVPDDERQCSACRTTCFLSALTCSCNPERLVCLYHPTDLCPCPMQKKCLRYRYPLEDLPSLLYGVKVRAQSYDTWVSRVTEALSANFNHKKDLIELRVMLEDAEDRKYPENDLFRKLRDAVKEAETCASVAQLL
